The stoichiometry N is the number of molecules, sites or subunits per partner or assembly. The kcat is the maximal rate divided by the concentration of active sites. The term kcat/Km denotes the turnover number divided by the Michaelis constant.

The record followed here is article PMC4755848 (Proteins, 2016).

The target of data set [1] is BaiE (bile acid 7α-dehydratase) from Clostridium hiranonis DSM13275 (Clostridium hiranonis DSM13275). Description: SEC. On the technique in general: Size exclusion chromatography separates by hydrodynamic size, large species first.
For data set [2], the target named is BaiE (bile acid 7α-dehydratase) from Clostridium scindens ATCC35704 (Clostridium scindens ATCC35704) (UniProt P19412). The data set is described as follows: SEC.
In data set [3] the target is BaiE (bile acid 7α-dehydratase) from Clostridium hylemonae DSM15053 (Clostridium hylemonae DSM15053). The data set is described as follows: SEC.
Substrate in data set [4]: C[C@H](CCC(=O)SCCNC(=O)CCNC(=O)[C@H](O)C(C)(C)COP(=O)(O)OP(=O)(O)OC[C@H]1O[C@@H](n2cnc3c(N)ncnc32)[C@H](O)[C@@H]1OP(=O)(O)O)[C@H]1CC[C@H]2[C@@H]3[C@H](O)CC4=CC(=O)CC[C@]4(C)[C@H]3CC[C@]12C
The data set is described as follows: purified protein. It counts as biochemical, Peptacetobacter hiranonis. As to conditions: 20 mM Tris-HCl pH 7.3, 25 °C.

Substrate in data set [5]: C[C@H](CCC(=O)O)[C@H]1CC[C@H]2[C@@H]3[C@H](O)CC4=CC(=O)CC[C@]4(C)[C@H]3CC[C@]12C
The data set is described as follows: purified protein. The class given is biochemical, Peptacetobacter hiranonis. As to conditions: 20 mM Tris-HCl pH 7.3, 25 °C.

Substrate in data set [6]: C[C@H](CCC(=O)SCCNC(=O)CCNC(=O)[C@H](O)C(C)(C)COP(=O)(O)OP(=O)(O)OC[C@H]1O[C@@H](n2cnc3c(N)ncnc32)[C@H](O)[C@@H]1OP(=O)(O)O)[C@H]1CC[C@H]2[C@@H]3[C@H](O)CC4=CC(=O)CC[C@]4(C)[C@H]3CC[C@]12C
Description: purified protein. It counts as biochemical, [Clostridium] scindens. As to conditions: 20 mM Tris-HCl pH 7.3, 25 °C.

Substrate in data set [7]: C[C@H](CCC(=O)O)[C@H]1CC[C@H]2[C@@H]3[C@H](O)CC4=CC(=O)CC[C@]4(C)[C@H]3CC[C@]12C
Description: purified protein. It counts as biochemical, [Clostridium] scindens. The following applies: 20 mM Tris-HCl pH 7.3, 25 °C.

The data set “SEC” concerns the molecule itself. Description: SEC.
Substrate in data set [8]: C[C@H](CCC(=O)SCCNC(=O)CCNC(=O)[C@H](O)C(C)(C)COP(=O)(O)OP(=O)(O)OC[C@H]1O[C@@H](n2cnc3c(N)ncnc32)[C@H](O)[C@@H]1OP(=O)(O)O)[C@H]1CC[C@H]2[C@@H]3[C@H](O)CC4=CC(=O)CC[C@]4(C)[C@H]3CC[C@]12C
Description: purified protein. It counts as biochemical, [Clostridium] hylemonae. The following applies: 20 mM Tris-HCl pH 7.3, 25 °C.

Substrate in data set [9]: C[C@H](CCC(=O)O)[C@H]1CC[C@H]2[C@@H]3[C@H](O)CC4=CC(=O)CC[C@]4(C)[C@H]3CC[C@]12C
Description: purified protein. It counts as biochemical, [Clostridium] hylemonae. As to conditions: 20 mM Tris-HCl pH 7.3, 25 °C.

Residue numbers refer to the chain shown, from its start.

The molecule “BaiE (bile acid 7α-dehydratase) from Clostridium hiranonis DSM13275 (enzyme)” displayed a stoichiometry N in [1] of 3.
Consider “BaiE (bile acid 7α-dehydratase) from Clostridium scindens ATCC35704 (from UniProt P19412 1-166) (enzyme)”, for which the stoichiometry N in [2] is 3.
As for “BaiE (bile acid 7α-dehydratase) from Clostridium hylemonae DSM15053 (enzyme)”, the stoichiometry N in data set [3] is 3.

B1: BaiE_13275 (Peptacetobacter hiranonis DSM 13275) (protein)
chain: MTLEARIEALEKEIQRLNDIEAIKQLKAKYFRCLDGKLWDELETTLSPNIETSYSDGKLVFHSPKEVTEYLAAAMPKEEISMHMGHTPEITIDSENTATGRWYLEDNLIFTDGKYKNVGINGGAFYTDKYEKIDGQWYIKETGYVRIFEEHFMRDPKIHITSNMHKEK
In the case of B1, in “purified protein [4]”, the Km was 208.0 (40.0) μM, the kcat came to 22.2 s⁻¹ and the kcat/Km was determined as 100000 M⁻¹ s⁻¹. In the data set “purified protein [5]”, the Km was 25.0 (1.8) μM, the kcat was 4.4 s⁻¹ and the kcat/Km worked out at 200000 M⁻¹ s⁻¹.

B2: BaiE_35704 ([Clostridium] scindens ATCC 35704) (protein)
chain: MTLEERVEALEKELQKMKDIEAIKELKGKYFRCLDGKMWDELETTLSPNIVTSYSNGKLVFHSPKEVTDYLKSTMPKEEISMHMGHTPEITIDSETTATGRWYLEDKLIFTDGKYKDVGINGGAFYTDKYEKIEGQWYILETGYVRIYEEHFMRDPKIHITMNMHK
With B2, in “purified protein [6]”, the Km is 1.2 (0.2) μM, the kcat amounted to 15 s⁻¹ and the kcat/Km is 1.25e+07 M⁻¹ s⁻¹. Moreover, in the data set “purified protein [7]”, the Km is on record as 11.0 (1.9) μM, the kcat was found to be 18 s⁻¹ and the kcat/Km amounted to 1.6e+06 M⁻¹ s⁻¹.

B3: BaiE (bile acid 7α-dehydratase) from Clostridium scindens VPI12708 (enzyme, UniProt P19412 1-166, looked up)
chain: B2 chain with K16E, T74S, K107R, E134D
On to B3, for which the “stoichiometry N” value in the data set “SEC” came out at 3. For the same molecule, in the data set “purified protein [6]”, the Km is 4.0 (0.56) μM, the kcat is 98 s⁻¹ and the kcat/Km turned out to be 2.45e+07 M⁻¹ s⁻¹. In the data set “purified protein [7]”, the Km is given as 9.9 (2.1) μM, the kcat was found to be 24 s⁻¹ and the kcat/Km came out at 2.4e+06 M⁻¹ s⁻¹.

B4: BaiE_15053 ([Clostridium] hylemonae DSM 15053) (protein)
chain: MSIEERLEALEKEIQKMKDIEEIKKLKGQYFRCLDGKFWDELETTLSPNIVTSYSNGKLVFHGPKEVTDYFKKAMPREEISMHMGHTPEITIDSETTATGRWYLEDKLIFTEESKYAGSGVNGGAFYTDKYEKVDGKWYILETGYLRVYEEHFMRDPKIKITMNMHKTK
With B4, in the data set “purified protein [8]”, the Km is given as 11.4 (1.9) μM, the kcat stood at 12.6 s⁻¹ and the kcat/Km was determined as 1.1e+06 M⁻¹ s⁻¹. Also, in “purified protein [9]”, the Km is 21.0 (2.0) μM, the kcat is 18.6 s⁻¹ and the kcat/Km was determined as 900000 M⁻¹ s⁻¹.
